Earlier results as cited in publication PMC4771075.

Target: kappa opioid receptor (Rattus norvegicus) (UniProt P34975)
Experiment: radioligand

Chain of kappa opioid receptor (Rattus norvegicus) (P34975 whole entry): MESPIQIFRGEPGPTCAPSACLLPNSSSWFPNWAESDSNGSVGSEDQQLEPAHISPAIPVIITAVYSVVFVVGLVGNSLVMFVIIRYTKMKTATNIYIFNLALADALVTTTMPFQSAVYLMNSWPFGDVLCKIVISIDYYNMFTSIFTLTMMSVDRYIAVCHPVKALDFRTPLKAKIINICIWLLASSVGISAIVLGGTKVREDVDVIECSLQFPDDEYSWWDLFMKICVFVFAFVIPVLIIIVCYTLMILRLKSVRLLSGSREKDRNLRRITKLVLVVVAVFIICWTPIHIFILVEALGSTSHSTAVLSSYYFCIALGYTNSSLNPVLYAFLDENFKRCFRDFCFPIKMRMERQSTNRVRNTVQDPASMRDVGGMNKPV

Ki: 0.57 nM
Substance: Dyn A(1-11)NH2 1-11 (from UniProt P01213)
